The nature of the data set: label from the status in PepcDB records.
“MLKQPIQAQQLIELLKVHYGIDIHTAQFIQGGADTNAFAYQADSESKSYFIKLKYGYHDEINLSIIRLLHDSGIKEIIFPIHTLEAKLFQQLKHFKIIAYPFIHAPNGFTQNLTGKQWKQLGKVLRQIHETSVPISIQQQLRKEIYSPKWREIVRSFYNQIEFDNSDDKLTAAFKSFFNQNSAAIHRLVDTSEKLSKKIQPDLDKYVLCHSDIHAGNVLVGNEESIYIIDWDEPMLAPKERDLMFIGGGVGNVWNKPHEIQYFYEGYGEINVDKTILSYYRHERIVEDIAVYGQDLLSRNQNNQSRLESFKYFKEMFDPNNVVEIAFATEQ”: the protein production result is “failed”.

Consider “MLKRIFTVGGFTLLSRLTGFARDIMLAAILGAGPVADAFFVALRLPNHFRAIFAEGAFNAAFVPAYAHVHGEKGEASAKLFADRIFTLLFLSQLVLLAVALAFMPQMMSILAPGFTDDPEQRALAIELTRITFPYLLLITLVTLYGGILNVMQRFASAAAASIFLNISMMATLALAAFFPSAGHAAAWGVLISGVLQYFLLAGDLSLHGGLPRFARPKLDEDVRAFFRALGPATLGSMGTQLALFADTIIATFLPAGALSALYYADRLNQLPIGVIGIAIGTVLLPEMSRQLTAGDDAGAKASQRRAFEFTLLFSVPFVAAFLTVPDEIMRAMFARGAFTRADAISAGTTLAAYAIALIPFVLIRSAVAPFYARKDTATPVKAALTGVATNVVLKFALMGSLAQVGLALATAAGAWINLLLVIFFSVRAGYLEFDRELVRAILKFGIIGVLLGAALWLTAWLAPPYLALLPALRSEAALALLILVGAVIYGAAILILFGPRWIKRLLRG”, for which the protein production result was “failed”.

As to “MLKRKLILIAYTLLGLSSPVFSADYITENLSTYMRKGAGDQYKISGAVQAGEKVTVLDRKDRFVLIRDSRNREGWVLASEISQTASPKDLIPQLQQQVQDLSSKLGKIDADWQQRTLEMQRRSQQAEQQSSQLLDQNAQLKRELDILKNKNRDLETMHDSAKREIVIQWFIYGGSVLAVGLLLGLIIPFILPRRKRHNGWS”, the protein production entry is on record as “failed”.

For “MLKRLWQIFGPVICALVLVVVVIYAYPQGRKYSYEAEKRSAVTLTNENFKSRKNKTTALSDQNHRFVPYFGSSEWLRFDALHPAVLAEKYDRNYRPYFIGQRGSASLNQYLGMQQMLPELQNGTAVYVLSPQWFTKKGYNSAAFQQFFNNDQLSSFLSQNQTDANSQYAAKRILEMKPEITMKSQLSKVAKGQDLNTVDKTYIQFMAELNRREDSLFSPLAASNNANYDKKVLPYLKELPDQFSYDALDQLAVRDAEAHTKSNDFGIDDRFYKERLSKKIGKLKGFQKNLSYEVSQEYGDLQLVLNQFAKSNTNVIFVIPPVNSKWMAYTGLNQDMYDATVSKIRYQLESQGFTNIADFSKDGDQPYFMQDTIHMGWKGWVAFDRVVNSFVSNPTPAPSYKLNDRFYSKDWSGYTGTPSQFKLEHHHHHH”, the protein production result is “not failed”.

For the sequence “MLKSCPMNPRLDALHPYPFEKLRALLADAGKPTHDLPPINLSIGEPKHAAPACVGQAIAANLAGLSVYPSTKGEPALRQAISQWLSRRYSIPAPDPESEVLPVLGSREALFAFAQTVIDPSAGALVVCPNPFYQIYEGAALLAGATPYYVNADPARDFGCDWARVPDEVWRRTQLVFVCSPGNPAGNVMSLEEWRTLFELSDRHGFVIAADECYSEIYLDEDNPPLGSLQAARRLGRDRYTNLVAFSSLSKRSNVPGMRSGFVAGDAALLARFLLYRTYHGSAMSPVVSAASIAAWSDETHVQENRRQYRAKFEAVLPILQNVLDVRAPQASFYLWAGTPGSDTAFARELYGRTGVTVLPGSLLAREAHNANPGQGRIRIALVAPLDQCVQAAERIAHFARTSI”, the protein production entry was “failed”.

Regarding “MLKSEDADYEKAMKDKVGTGPQEYLKQLSDSLVKNQSAASVEVVSGATHSSDAFINYANQLIQAAQKADTTTISINNLAKMEDGTYKLEEQNYAHGYRVVFSMDVKDGKITKSDYNYVDKDGKLKSDDADYEKNMKAKSGTGPKEYIPALNKSLVEKQDVAAVDTVSGATNSSNQFKIYAAQLQNAAQNGNTDTIKVYNLVEAELEHHHHHH”, the protein production result was “failed”.

Source of the values: a protein production outcome set (Wang et al. 2014).
